# Data reported in US20140105889A1 (published 2014).
# Residue numbers refer to the chain shown, from its start.
# T1: human FcγRIIa type R (human, UniProt P12318 36-217)
# T1 construct: also called FcgRIIaR; FcγRIIa(R)
# T1 chain: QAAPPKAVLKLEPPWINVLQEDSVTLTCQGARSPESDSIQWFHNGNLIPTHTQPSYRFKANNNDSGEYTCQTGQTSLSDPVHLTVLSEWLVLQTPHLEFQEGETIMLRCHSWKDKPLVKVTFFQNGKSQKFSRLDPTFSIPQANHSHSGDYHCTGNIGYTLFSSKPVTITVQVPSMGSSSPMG
# T2: human FcγRIIa type H (human, UniProt P12318 36-217)
# T2 construct: also called FcgRIIaH; FcγRIIa(H)
# T2 sequence: T1 chain with R133H
# T3: human FcγRIIb (human, UniProt P31994 43-217)
# T3 construct: also called FcgRIIb; FcγIIB
# T3 sequence: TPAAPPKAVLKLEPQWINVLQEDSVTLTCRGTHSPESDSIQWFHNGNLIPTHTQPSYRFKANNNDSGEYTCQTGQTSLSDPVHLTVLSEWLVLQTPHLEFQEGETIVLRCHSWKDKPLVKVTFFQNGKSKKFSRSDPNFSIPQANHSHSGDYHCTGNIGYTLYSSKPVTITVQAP
# B1: IL6R-BP085/IL6R-L (antibody, human IgG1)
# heavy: QVQLQESGPGLVKPSETLSLTCAVSGHSISHDHAWSWVRQPPGEGLEWIGFISYSGITNYNPSLQGRVTISRDNSKNTLYLQMNSLRAEDTAVYYCARSLARTTAMDYWGEGTLVTVSSASTKGPSVFPLAPSSKSTSGGTAALGCLVKDYFPEPVTVSWNSGALTSGVHTFPAVLQSSGLYSLSSVVTVPSSSLGTQTYICNVNHKPSNTKVDKKVEPKSCDKTHTCPPCPAPELLGDDSVFLFPPKPKDTLMISRTPEVTCVVVDVSHEDPEVKFNWYVDGVEVHNAKTKPREEQYNSTYRVVSVLTVLHQDWLNGKEYKCKVSNKALPKPIEKTISKAKGQPREPQVYTLPPSRDELTKNQVSLTCLVKGFYPSDIAVEWESNGQPENNYKTTPPVLDSDGSFFLYSKLTVDKSRWQQGNVFSCSVMHEALHNHYTQESLSLSP
# light: DIQMTQSPSSLSASVGDRVTITCRASQDISSYLNWYQQKPGKAPKLLIYYTSRLHSGVPSRFSGSGSGTDFTFTISSLQPEDIATYYCQQGNTLPYTFGQGTKVEIK
# B2: IL6R-BP086/IL6R-L (antibody, human IgG1)
# heavy: B1 heavy with D239G, K328A
# light: B1 light
# B3: IL6R-BP087/IL6R-L (antibody, human IgG1)
# heavy: B1 heavy with L236Y, D239G
# light: B1 light
# B4: IL6R-BP088/IL6R-L (antibody, human IgG1)
# heavy: B1 heavy with K328A
# light: B1 light
# B5: IL6R-BP089/IL6R-L (antibody, human IgG1)
# heavy: B1 heavy with L236Y, D239G, K328A
# light: B1 light
# B6: IL6R-BP129/IL6R-L (antibody, human IgG1)
# heavy: B1 heavy with E235D, D239G, Y298D
# light: B1 light
# B7: IL6R-BP132/IL6R-L (antibody, human IgG1)
# heavy: B1 heavy with E235D, D239G, K328A
# light: B1 light
# B8: IL6R-BP133/IL6R-L (antibody, human IgG1)
# heavy: B1 heavy with E235D, L236Y, D239G
# light: B1 light
# B9: IL6R-BP143/IL6R-L (antibody, human IgG1)
# heavy: B1 heavy with L236Y, D239G, K328A, K332A
# light: B1 light
# B10: IL6R-BP144/IL6R-L (antibody, human IgG1)
# heavy: B1 heavy with K328A, K332A
# light: B1 light
# B11: IL6R-BP145/IL6R-L (antibody, human IgG1)
# heavy: B1 heavy with L236Y, K332A
# light: B1 light
# Target: T4, human FcγRIa (human, UniProt P12314 16-292, limits assumed)
# T4 construct: also called FcgRIa; CD64
# T4 sequence (P12314 16-292 limits assumed): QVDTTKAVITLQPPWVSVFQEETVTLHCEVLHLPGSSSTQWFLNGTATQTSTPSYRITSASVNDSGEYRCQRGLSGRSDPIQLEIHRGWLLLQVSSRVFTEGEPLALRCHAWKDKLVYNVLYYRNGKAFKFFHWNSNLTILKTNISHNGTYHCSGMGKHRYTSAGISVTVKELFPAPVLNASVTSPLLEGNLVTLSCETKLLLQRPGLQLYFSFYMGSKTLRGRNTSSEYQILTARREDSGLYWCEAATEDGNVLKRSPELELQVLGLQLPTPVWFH
# Assay: SPR (Biacore), FcγR over captured antibody; binding amount / that of IL6R-BF648/IL6R-L x100
# Method: (§1) According to the following method, relative binding activities were calculated for the results of analyzing interactions with the respective FcγRs.
row,Binder,relative binding activity
1,B1,19 % of IL6R-BF648/IL6R-L
2,B2,72 % of IL6R-BF648/IL6R-L
3,B3,33 % of IL6R-BF648/IL6R-L
4,B4,25 % of IL6R-BF648/IL6R-L
5,B5,43 % of IL6R-BF648/IL6R-L
6,B6,68 % of IL6R-BF648/IL6R-L
7,B7,91 % of IL6R-BF648/IL6R-L
8,B8,41 % of IL6R-BF648/IL6R-L
9,B9,86 % of IL6R-BF648/IL6R-L
10,B10,64 % of IL6R-BF648/IL6R-L
11,B11,41 % of IL6R-BF648/IL6R-L

# Target: T1, human FcγRIIa type R
# Assay: as above
# Method: as §1
row,Binder,relative binding activity
1,B1,279 % of IL6R-BF648/IL6R-L
2,B2,155 % of IL6R-BF648/IL6R-L
3,B3,163 % of IL6R-BF648/IL6R-L
4,B4,377 % of IL6R-BF648/IL6R-L
5,B5,222 % of IL6R-BF648/IL6R-L
6,B6,111 % of IL6R-BF648/IL6R-L
7,B7,191 % of IL6R-BF648/IL6R-L
8,B8,174 % of IL6R-BF648/IL6R-L
9,B9,238 % of IL6R-BF648/IL6R-L
10,B10,204 % of IL6R-BF648/IL6R-L
11,B11,350 % of IL6R-BF648/IL6R-L

# Target: T2, human FcγRIIa type H
# Assay: as above
# Method: as §1
row,Binder,relative binding activity
1,B1,158 % of IL6R-BF648/IL6R-L
2,B2,116 % of IL6R-BF648/IL6R-L
3,B3,179 % of IL6R-BF648/IL6R-L
4,B4,166 % of IL6R-BF648/IL6R-L
5,B5,186 % of IL6R-BF648/IL6R-L
6,B6,98 % of IL6R-BF648/IL6R-L
7,B7,130 % of IL6R-BF648/IL6R-L
8,B8,151 % of IL6R-BF648/IL6R-L
9,B9,143 % of IL6R-BF648/IL6R-L
10,B10,108 % of IL6R-BF648/IL6R-L
11,B11,224 % of IL6R-BF648/IL6R-L

# Target: T3, human FcγRIIb
# Assay: as above
# Method: as §1
row,Binder,relative binding activity
1,B1,152 % of IL6R-BF648/IL6R-L
2,B2,137 % of IL6R-BF648/IL6R-L
3,B3,137 % of IL6R-BF648/IL6R-L
4,B4,161 % of IL6R-BF648/IL6R-L
5,B5,147 % of IL6R-BF648/IL6R-L
6,B6,138 % of IL6R-BF648/IL6R-L
7,B7,150 % of IL6R-BF648/IL6R-L
8,B8,137 % of IL6R-BF648/IL6R-L
9,B9,133 % of IL6R-BF648/IL6R-L
10,B10,121 % of IL6R-BF648/IL6R-L
11,B11,152 % of IL6R-BF648/IL6R-L

# Target: T5, human FcγRIIIa type V (human, UniProt P08637 17-208, limits assumed)
# T5 construct: Allotype V158 was used; also called FcgRIIIaV; FcγRIIIa(V)
# T5 sequence (P08637 other isoform, or with tags, fused parts or gaps limits assumed): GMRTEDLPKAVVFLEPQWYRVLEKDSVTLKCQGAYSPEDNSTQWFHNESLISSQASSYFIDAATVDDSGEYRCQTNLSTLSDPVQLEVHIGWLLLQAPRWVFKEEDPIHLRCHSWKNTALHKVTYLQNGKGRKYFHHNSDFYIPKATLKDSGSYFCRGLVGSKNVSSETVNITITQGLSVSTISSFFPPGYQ
# Assay: as above
# Method: as §1
row,Binder,relative binding activity
1,B1,104 % of IL6R-BF648/IL6R-L
2,B2,123 % of IL6R-BF648/IL6R-L
3,B3,158 % of IL6R-BF648/IL6R-L
4,B4,122 % of IL6R-BF648/IL6R-L
5,B5,136 % of IL6R-BF648/IL6R-L
6,B6,95 % of IL6R-BF648/IL6R-L
7,B7,120 % of IL6R-BF648/IL6R-L
8,B8,114 % of IL6R-BF648/IL6R-L
9,B9,114 % of IL6R-BF648/IL6R-L
10,B10,128 % of IL6R-BF648/IL6R-L
11,B11,153 % of IL6R-BF648/IL6R-L
